From US20230265208A1 (Dana-Farber, published 2023)
Substitutions are numbered along the chain they refer to.

B1: GO-702m (antibody, V domains shown)
VH: QVQLQQSGAELMKPGASVKISCKAIGFTFNYFWIEWVKQRPGHGLEWIGEILPGTGSTNYNEKFKGKAIFTADTSSNTAYMQLRSLTSEDSAVYYCVRYDYTSSMDYWGQGTSVTVSS
VL: DIVLTQSPGSLAVSLGQSVTISCRASESVQYSGTSLMHWYQQKPGQPPKLLIYGASNVETGVPARFSGSGSGTDFSLNIHPVEEDDIAMYFCQQNWKVPWTFGGGTKLEIK
notes: Mouse monoclonal antibody, detected with anti-mouse IgG kappa
B2: VH1 + VL4 (antibody, V domains shown)
VH: QVQLVQSGAEVKKPGSSVKVSCKASGYAFSNFWMNWVRQAPGQGLEWMGQIYPGDGDTNYNGKFKGRVTITADKSTSTAYMELSSLRSEDTAVYYCARSYYRSAWFAYWGQGTLVTVSS
VL: AIQLTQSPSSLSASVGDRVTITCRASQSIGTSIHWYQQKPGKAPKLLIYYASESISGVPSRFSGSGSGTDFTLTISSLQPEDFATYYCQQSNNWPLTFGGGTKVEIK
B3: VH5 + VL2 (antibody, V domains shown)
VH: EVQLVQSGAEVKKPGESLKISCKGSGYAFSNFWMNWVRQMPGKGLEWMGQIYPGDGDTNYNGKFKGQVTISADKSISTAYLQWSSLKASDTAMYYCARSYYRSAWFAYWGQGTLVTVSL
VL: EIVMTQSPATLSVSPGERATLSCRASQSIGTSIHWYQQKPGQAPRLLIYYASESISGIPARFSGSGSGTEFTLTISSLQSEDFAVYYCQQSNNWPLTFGGGTKVEIK
B4: VH2 + VL3 (antibody, V domains shown)
VH: B2 VH with S16A, I70M, A72R, K74T, A79V
VL: B3 VL with M4L, V13L, E70D, Q79E, S80P
B5: VH1 + VL3 (antibody, V domains shown)
VH: B2 VH
VL: B3 VL with M4L, V13L, E70D, Q79E, S80P
B6: VH5 + VL3 (antibody, human IgG1, kappa, V domains shown)
VH: EVQLVQSGAEVKKPGESLKISCKGSGFTFNYFWIEWVRQMPGKGLEWMGEILPGTGSTNYNEKFKGQVTISADKSISTAYLQWSSLKASDTAMYYCARYDYTSSMDYWGQGTLVTVSS
VL: EIVLTQSPATLSLSPGERATLSCRASESVQYSGTSLMHWYQQKPGQAPRLLIYGASNVETGIPARFSGSGSGTDFTLTISSLEPEDFAVYYCQQNWKVPWTFGQGTKVEIKR
notes: Full-length humanized IgG expressed in HEK293 and purified on protein A. Constant regions not specified; also called #23 (inferred from 5x5 numbering)
B7: GO-702h wild-type (antibody)
heavy: not shown
light: EIVLTQSPATLSLSPGERATLSCRASESVQYSGTSLMHWYQQKPGQAPRLLIYGASNVETGIPARFSGSGSGTDFTLTISSLEPEDFAVYYCQQNWKVPWTFGQGTKVEIKRTVAAPSVFIFPPSDEQLKSGTASVVCLLNNFYPREAKVQWKVDNALQSGNSQESVTEQDSKDSTYSLSSTLTLSKADYEKHKVYACEVTHQGLSSPVTKSFNRGEC
notes: copies: 2 + 2

Tests used:
WT p58/p62 heterodimer = molecular target: T1, WT p58/p62 heterodimer (human, UniProt P15941 1036-1097, limits assumed); test: left panel, Absorbance against Concentration (nM). The panel does not name the target. The axis points to the ELISA on WT p58/p62 of the legend, while the legend's first sentence speaks of MFI on HCT116 cells.
T1 construct: domain: 62 amino acid region (p62) of the SEA domain; Construct limits and tags are not described; also called p62/p58 heterodimer; WT protein
T1 sequence 1: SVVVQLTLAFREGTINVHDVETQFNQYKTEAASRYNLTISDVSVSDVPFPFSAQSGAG
T1 sequence 2: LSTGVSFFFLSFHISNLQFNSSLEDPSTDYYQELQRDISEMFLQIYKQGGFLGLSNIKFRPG

MUC1-ECD [1] = molecular target: T2, MUC1-ECD (human, UniProt P15941 1098-1155); test: SPR Biacore T200, antibody on chip, MUC1-ECD analyte, 1:1 fit
T2 construct: also called Ag MUC1-ECD; Antigen MUC1-ECD
T2 sequence: T1 sequence 1

MUC1-ECD [2] = molecular target: T2, MUC1-ECD; test: SPR (Biacore), 1:1 fit; panel 'GO-702h'; analyte cell empty, antigen at 1.875-60 nM by the legend; same numbers as Table 7 prints for VH5 + VL3

Row | Binder | EC50 (WT p58/p62 heterodimer) [nM] | Kd (MUC1-ECD [1]) [nM] | koff (MUC1-ECD [1]) [s⁻¹] | kon (MUC1-ECD [1]) [M⁻¹ s⁻¹] | Kd (MUC1-ECD [2]) [nM] | koff (MUC1-ECD [2]) [s⁻¹] | kon (MUC1-ECD [2]) [M⁻¹ s⁻¹]
1 | B1 | 0.6 | – | – | – | – | – | –
2 | B2 | – | 7.13 | 0.00315 | 442000 | – | – | –
3 | B3 | – | 2.75 | 0.00125 | 455000 | – | – | –
4 | B4 | – | 3.6 | 0.00145 | 404000 | – | – | –
5 | B5 | – | 5.23 | 0.00222 | 425000 | – | – | –
6 | B6 | – | 1.55 | 0.000844 | 545000 | – | – | –
7 | B7 | – | – | – | – | 1.55 | 0.000844 | 545000
